System: BxPC3 + HPSC orthotopic tumors
Assay: Orthotopic co-injection BxPC3 + HPSC nude mouse model of PDAC
Assay type: in vivo
Details: 5 mg/kg i.p. once every 5 days, vs PBS or control mAb
Experimental: HPSCs and BxPC3 cells were treated with DKK3 mAb clones JM6-6-1 and JM8-12-1 or isotype control mAb or PBS. (FIGS. 5A-B) HPSC apoptosis and migration as measured by FACS and Transwell migration assay at 48 hours. (FIG. 5C) BxPC3 migration in response to rhDKK3 10 μg/ml as measured by Transwell migration assay at 48 hours. (FIG. 5D) BxPC3 resistance to gemcitabine 100 μM as measured by MTS proliferation assay at 6 days. HPSC-CM, pancreatic stellate cell conditioned media, 10 μg/ml. The orthotopic co-injection BxPC3+ HPSC model of PDAC was used to test the efficacy of DKK3 mAb clones JM6-6-1 or JM8-12-1 (5 mg/kg i.p. once every 5 days). (FIG. 5E) Overall tumor progression was measured every 3-4 days by IVIS imaging. (FIG. 5F) Metastatic tumors in the peritoneal cavity after removal of the primary pancreatic tumor are shown by IVIS imaging. (FIG. 5G) Kaplan Meier survival curve showing mice treated with DKK3 mAb clone JM8-12 (right-most line), control mAb (middle line), or PBS (left-most line). (FIG. 5H) KPC mice (P48-Cre; Kras LSL-G12D;Trp53fl/fl) with either wild type DKK3 (solid lines) or deficient in DKK3 (“DKK3-KO,” dashed lines) were treated with DKK3 mAb JM6-6-1 (5 mg/kg i.p. once every 5 days), PBS or control mAb. Kaplan Meier survival curve is shown with hazard ratios (Log-rank test). *p<0.05, **p<0.01, ***p<0.001, ****p<0.0001 vs. control Ab.
An orthotopic nude mouse model of PDAC using BxPC3 cancer cells labeled with firefly luciferase (BxPC3-FL) co-injected with HPSCs has been previously described (Hwang et al., 2008). Mice received intrapancreatic injections of BxPC3-FL (1×10^6 per mouse) with HPSC-shControl or HPSC-shDKK3 in a tumor-to-stroma ratio of 1:0 or 1:3 in 50-μL of HBSS and tumor growth was monitored using IVIS imaging (Hwang et al., 2008). In addition, a syngeneic immunocompetent DKK3 null model was used, provided by Dr. C. Niehrs (Barrantes Idel et al., 2006), that was injected with murine PDAC cells (termed “KPC cells”) isolated from tumors arising in a GEMM of PDAC (Pdx1-Cre; Kras^LSL-G12D;Trp53^R172H/+) (Hingorani et al., 2005; Hingorani et al., 2003) and labeled with luciferase.
The efficacy of DKK3 mAb was tested in vivo using the previously described orthotopic co-implantation nude mouse model of PDAC with human PSCs mixed with luciferase-labeled BxPC3 cancer cells (1:3 tumor:PSC ratio). Mice were treated with either phosphate-buffered saline (PBS), isotype control mAb, or DKK3 mAb (clone JM6-6-1; 5 mg/kg i.p. once every 5 days) and tumor growth was followed with IVIS imaging. […] Tumors in the PBS and control mAb groups grew rapidly from day 22 onward, with an 8-fold increase in the luciferase signal.

B1: JM6-6-1: monoclonal antibody against human DKK3; heavy chain variable SEQ ID NO: 19, light chain variable SEQ ID NO: 20 (antibody, V domains shown)
VH: EVKLVESGGGLVKPGGSLKLSCAASGFTFTIEYMAWIRQTPEKRLEWVASISSGGDDIYYADNVKGRFTISRDNAKNTLYLQMSSLKSEDTAIYYCSRSLSDWGQGTTLTVSSAKTTPPSDYPLA
VL: MTQTPLSLPVSLGDQASISCRSSQSILHSNGHTYLEWYLQKPGQSPKLLIYKVSNRFSGVPDRFSGSGSGTDFTLKISRVEAEDLGVYYCFQGSHVPFTFGSGTKLEIERADAAQ
tumor growth by IVIS imaging (day 22 until day 33): significant inhibition in tumor growth | lower volume of metastatic disease in peritoneal cavity by luciferase signal: 6.5 fold

From patent US20210340232A1, “MONOCLONAL ANTIBODIES AGAINST HUMAN DICKKOPF3 AND USES THEREOF” (Board of Regents, The University of Texas System, priority 2018, published 2021)
